According to publication PMC8248824 (Acta Crystallographica. Section F, Structural Biology …, 2021):

T1: biotinylated HER3 domain 4 with N-terminal AviTag and His6 tag (Homo sapiens, biotin (in vitro biotinylation of the AviTag))
T1 construct: also called biotinylated HER3d4; HER3d4; source: Sf9 (baculovirus), secreted, purified (IMAC, in vitro biotinylation, Superdex 75 SEC); not shown: AviTag, N-terminal, kept
T1 chain: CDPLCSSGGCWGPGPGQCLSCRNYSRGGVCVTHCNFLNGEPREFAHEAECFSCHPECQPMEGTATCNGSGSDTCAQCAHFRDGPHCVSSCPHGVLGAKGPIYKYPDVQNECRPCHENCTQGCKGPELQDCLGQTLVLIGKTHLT

T2: HER3 extracellular domain 4 (HER3d4) without AviTag, deglycosylated (Homo sapiens)
T2 construct: PNGase F treatment may have turned glycosylated Asn into Asp (surmise); also called HER3 domain 4; ErbB3 domain 4; source: Sf9 (baculovirus), secreted, purified (IMAC), deglycosylated with PNGase F, ConA Sepharose
T2 chain: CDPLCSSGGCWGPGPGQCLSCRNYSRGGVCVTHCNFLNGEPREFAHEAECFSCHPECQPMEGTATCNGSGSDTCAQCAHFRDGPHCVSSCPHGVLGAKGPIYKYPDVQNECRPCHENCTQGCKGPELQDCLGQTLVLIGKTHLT

T3: HER3 extracellular domain 4, biotinylated (N-terminal AviTag and His6 tag) (human, biotin (in vitro biotinylation, AviTag))
T3 construct: HER3 (ErbB3) extracellular domain 4, human, residues 500-643 of UniProt entry P21860; also called HER3d4; HER3 domain 4; source: Sf9 insect cells (baculovirus), secreted, purified (IMAC, Superdex 75), biotinylated in vitro; not shown: AviTag, N-terminal, kept
T3 chain: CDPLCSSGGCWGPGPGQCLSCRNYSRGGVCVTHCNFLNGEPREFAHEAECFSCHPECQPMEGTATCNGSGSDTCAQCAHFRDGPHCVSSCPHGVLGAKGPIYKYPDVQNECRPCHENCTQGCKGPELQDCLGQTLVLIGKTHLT

B1: DARPin D6 (designed binder)
chain: GSDLGKKLLEAARAGQDDEVRILMANGADVNAQDVSGQTPLHLAAIWGHLEIVEVLLKTGADVNAWDHWGNTPLHLAAWQGHLEIVEVLLKAGTDVNAKDSEGFTPLHLAAWWGHLEIVEVLLKHGADVNAQDKFGKTPFDLAIDNGNEDIAEVLQKAAKLN
notes: N3C DARPin selected by ribosome display; source: E. coli XL1 Blue, purified (HisPur Cobalt Spin Plates)
B2: DARPin D3 (designed binder)
chain: GSDLGKKLLEAARAGQDDEVRILMANGADVNAFDHSGSTPLHLAAAIGHLEIVEVLLKYGADVNAEDNWGNTPLHQAAWVGHREIVEVLLKYGADVNAQDKFGKTAFDISIDNGNEDLAEILQKLN
notes: N2C DARPin selected by ribosome display; source: E. coli XL1 Blue, purified (HisPur Cobalt Spin Plates)
B3: DARPin D5 from the pQiq_FLAG expression vector (N-terminal His6 tag, C-terminal FLAG tag) (designed binder)
chain: DLGKKLLEAARAGQDDEVRILMANGADVNAFDHNGSTPLHLAAAIGHLEIVEVLLKYGADVNAEDNWGNTPLHQAAWVGHLEIVEVLLKNGADVNAQDKFGKTAFDISIDNGNEDLAEILQKLN
notes: DARPin D5 itself, as printed within the crystallisation construct (from Asp13); source: E. coli XL1 Blue, purified (HisPur Cobalt Spin Plates)
B4: DARPin D5 (designed ankyrin-repeat protein D5), His6 tag removed by 3C protease (designed binder)
chain: GPGSDLGKKLLEAARAGQDDEVRILMANGADVNAFDHNGSTPLHLAAAIGHLEIVEVLLKYGADVNAEDNWGNTPLHQAAWVGHLEIVEVLLKNGADVNAQDKFGKTAFDISIDNGNEDLAEILQKLN
notes: N2C DARPin selected by ribosome display; Carries the framework mutation L86Q against the DARPin consensus; source: E. coli XL1 Blue, purified (Ni-NTA, 3C protease cleavage, reverse Ni-NTA); not shown: His6, N-terminal, cleaved
B5: DARPin D8 (designed binder)
chain: GSDLGKKLLEAARAGQDDEVRILMANGADVNAQDVSGQTPLHLAAIWGHLEIVEVLLKTGADVNAWDHWGNTPLHLAAWQGHLEIVEVLLKAGADVNAKDSEGFTPLHLAAWWGHLEIVEVLLKHGADVNAQDKFGKTPFDLAIDNGNEDIAEVLQKAAKLN
notes: as for B1
B6: DARPin D4 (designed binder)
chain: GSDLGKKLLEAARAGQDDEVRILMANGADVNAFDHNGSTPLHLAAAIGHLEIVEVLLKYGADVNAEDNWGNTPLHQAAWVGHREIVEVLLKYGADVNAQDKFGKTAFDISIDNGNEDLAEILQKLN
notes: as for B2
B7: DARPin D1 (designed binder)
chain: GSDLGKKLLEAARAGQDDEVRILMTNGADVNAFDHNGSTPLHLAAAIGHLEIVEVLLKYGADVNAEDNWGNTPLHQAAWVGHREIVEVLLKYGVDVNAQDKFGKTAFDISIDNGNEDLAEILQKLN
notes: as for B2
B8: DARPin D2 (designed binder)
chain: GSDLGKKLLEAARAGQDDEVRVLMANGADVNAFDHNGSTPLHLAAAIGHLEIVEVLLKYGADVNAEDNWGNTPLHQAAWVGHREIVEVLLKYGADVNAQDKFGKTAFDISIDNGNEDLAEILQKLN
notes: as for B2
B9: DARPin D5 (His6- and FLAG-tagged form used for characterisation) (designed binder)
chain: GSDLGKKLLEAARAGQDDEVRILMANGADVNAFDHNGSTPLHLAAAIGHLEIVEVLLKYGADVNAEDNWGNTPLHQAAWVGHLEIVEVLLKNGADVNAQDKFGKTAFDISIDNGNEDLAEILQKLN
notes: as for B2
B10: DARPin D7 (designed binder)
chain: GSDLGKKLLEATRAGQDDEVRILMANGADVNAQDVSGQTPLHLAAIWGHLEIVEVLLKTGADVNAQDWFGETPLHLAAVQGHLEIVEVLLKTGADVNAWDAYGHTPLHLAANYGHLEIVEVLLKHGADVNAQDKFGKTPFDLAIDNGNEDIAEVLQKAAKLN
notes: as for B1

molecular target: biotinylated HER3 domain 4 with N-terminal AviTag and His6 tag (Homo sapiens); assay: SPR; ProteOn XPR36, biotinylated HER3d4 on a NeutrAvidin NLC chip; monomeric DARPins injected at 2.5, 7.5, 22, 67 and 200 nM, 60 ul/min; PBS with 0.005% Tween-20; kinetic titration model; conditions: not given

In order of rising Kd:
1. B1  4.5 nM
2. B2  8.1 nM

Molecular target: T1, biotinylated HER3 domain 4 with …
Assay: as above
Conditions: both partners purified

B3: binds.

Molecular target: T2, HER3 extracellular domain 4 (HER3d4) …
Assay: crystal structure; DARPin D5 incubated with HER3d4 at a 1:1.2 molar ratio, complex purified by gel filtration in PBS; sitting drop, 277 K; two crystal forms, P2(1) at 2.3 A and P2(1)2(1)2(1) at 2.0 A
Conditions: both partners purified

B4: binds.

Molecular target: T3, HER3 extracellular domain 4, …
Assay: SPR; ProteOn XPR36, NeutrAvidin NLC chip; biotinylated HER3d4 immobilised; monomeric DARPins injected at 2.5, 7.5, 22, 67 and 200 nM (duplicates), 60 µl/min, 5 min association, 5 min dissociation; PBS with 0.005% Tween-20; kinetic titration model
Conditions: both partners purified

In order of rising koff:
1. B1  0.000623 s⁻¹
2. B5  0.000791 s⁻¹
3. B10  0.00147 s⁻¹
4. B6  0.00669 s⁻¹
5. B8  0.00783 s⁻¹
6. B9  0.00856 s⁻¹
7. B7  0.00932 s⁻¹
8. B2  0.0109 s⁻¹

In order of rising kon:
1. B1  138000 M⁻¹ s⁻¹
2. B5  158000 M⁻¹ s⁻¹
3. B10  196000 M⁻¹ s⁻¹
4. B7  1.23e+06 M⁻¹ s⁻¹
5. B9  1.25e+06 M⁻¹ s⁻¹
6. B2  1.35e+06 M⁻¹ s⁻¹
7. B8  1.37e+06 M⁻¹ s⁻¹
8. B6  1.51e+06 M⁻¹ s⁻¹

In order of falling Kd:
1. B7  7.6 nM
2. B10  7.5 nM
3. B9  6.9 nM
4. B8  5.7 nM
5. B5  5 nM
6. B6  4.4 nM
